# Results reported in the supplement of paper PMC12042874.
# ± gives the uncertainty stated by the source.
# Experiment: amyloid nucleation score (Sup35N fusion, yeast selection) (log enrichment); library NNK1; higher = more nucleation; inactive = no reads after selection
# How it was run: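 After 24 hours of induction with 100 μM copper sulfate, psi-negative yeast expressing peptides of 20 random codons fused to Sup35N were grown for 7 days at 30°C on medium lacking adenine and uracil. Input and output plasmid inserts were sequenced with Illumina, and sequences with under 100 input reads were discarded. Scores for nucleation are the DiMSum log enrichment of output over input reads, centred on the mode score of non-aggregating sequences.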
row,Substance,amyloid nucleation score
1,WFIAL,-0.068 ± 0.61
2,STNIFSYATLSGFYTVTMIR,-0.618 ± 0.49
3,FNVHNWAQRTVEHGETLFRD,1.57 ± 0.45
4,FINVAFGCVYVRTNCLRMEG,7.116 ± 0.059
5,RTSSIMSFPQCSCYSRRGVL,1.73 ± 0.33
6,TYRNS,-0.891 ± 1.2
7,GRFLHINS,inactive
8,YIDVFVSRVLHSGFERSDVV,0.745 ± 0.2
9,LNRSNWANFCMAEFMDPRS,0.488 ± 0.58
10,FYSCIYYGHMLVELPDMLEL,-0.056 ± 0.35
11,WSFTK,-0.284 ± 0.68
12,DMLWKRWTIYYAFYFKAWGY,1.08 ± 0.39
13,ISIIVVKFDMLLSNHHNSDA,0.486 ± 0.58
14,AMEPKVWRDGLLPG,-0.471 ± 0.47
15,FVHDLWLGYGVNFLIAVMCS,0.209 ± 0.34
16,QCGEICLCRSAGVVHSPRGW,-0.513 ± 0.55
17,NKYQLHMILKGFQGSAYWSV,-0.453 ± 0.81
18,YNCFMFAMFARSDSYMGIAS,0.597 ± 0.26
19,SNFSYMSCLLGYLPLILFAA,0.014 ± 0.21
20,DPADAPMITRNVGTWAKQVP,0.324 ± 0.97
21,NPNMVSRPCRVGRRPFDVGL,-0.022 ± 0.45
22,ACELGFLPKHRHRGLVFVEG,-0.725 ± 0.8

row,Substance,amyloid nucleation score
1,DLLETKWIPSLVYKSFESLW,-0.137 ± 0.63
2,YFFDIGVDSCMRFDIRVVET,1.77 ± 0.6
3,FHFKFSSLLIVSFVLGFCLV,0.027 ± 1.7
4,FYCPRIKNVFSEICIC,3.79 ± 0.1
5,SLKSSCRKNRLM,0.048 ± 0.5
6,IIFNYPNPIYLNAKEVMLYI,6.52 ± 0.067
7,WFAFIWNNRKCNFRKGTRDV,6.11 ± 0.075
8,AYSDVYQLFYLKYMFCNWLL,2.89 ± 0.26
9,IMLLLREKLASIRMMQECQL,inactive
10,LYAYDWLHEGNSSHKSDLVM,-0.791 ± 0.77
11,TWNAFRRLWVTSDGYTRVLT,1.23 ± 0.41
12,FMDMDRLMSRGLQVNKGVML,-0.228 ± 0.68
13,VMYHGVLYLVNKKVRAWVVG,-0.511 ± 0.76
14,VYESGRCNLACRMFARDGCS,-1.38 ± 2.4
15,FWELECADIAVKSKGGCQGC,-0.402 ± 0.44
16,FRRHYNKMNFFVGFRERMCG,-0.262 ± 0.49
17,FEYNRYRLLYTTYLGPVGGI,-1.56 ± 0.64
18,PNSERREAMVIMFRW,0.633 ± 0.35
19,CDGPCALQS,0.263 ± 0.51
20,RSADTLVEKNLIYGRWVRKS,0.93 ± 1
21,SVSGLYQHRSF,0.184 ± 0.35
22,IYVYWSDISV,0.907 ± 0.42

row,Substance,amyloid nucleation score
1,QTWLTLDQFVLTFGHKDNLG,0.853 ± 0.51
2,FDGKLW,-0.53 ± 0.61
3,VWRTEQ,-0.533 ± 0.66
4,TEYVTLLGLSLGFVLASLGA,0.283 ± 0.43
5,ETFPYMRMYARALSRT,0.369 ± 0.39
6,YSKIRNKSRFRNLSASFQRC,inactive
7,GEFESSNVRSACSGGYFRAA,-0.186 ± 0.88
8,WSATSATMLQSLPVQEEHVD,-0.38 ± 0.83
9,CYCSEWNWRCNTELDVLFQS,0.818 ± 0.4
10,VSGESDSYRVGFSEACLRKL,-0.849 ± 0.65
11,RNNCEMCLGFLS,0.827 ± 0.37
12,LDNIMVCNYAE,inactive
13,KMATRINGWCDGASATTV,-0.154 ± 0.74
14,ILGLSRGQ,0.015 ± 0.37
15,MYCFLAKDLRVTEKFWRRGS,-0.448 ± 0.64
16,CTYVLWRGMKGFR,0.05 ± 0.88
17,RFSITSGNYFNN,-0.971 ± 0.79
18,LVVHTVRVQDR,-0.043 ± 0.41
19,RFVWKDDTHQAIGTFLMSQG,1 ± 0.54
20,SVSRYDFEVGVMGHKCCITT,-0.359 ± 0.42
21,TNCDVVNSCTFGGNGDY,0.151 ± 1.1
22,VRTPRRCCSY,-0.096 ± 0.28

row,Substance,amyloid nucleation score
1,VINIFMVSLANTETDPTAHL,8.324 ± 0.071
2,PTFAADSEGHS,0.085 ± 0.63
3,TYCNMVITRQRNA,0.685 ± 0.38
4,LSYDSYSYIGLGGSLEIFWA,0.182 ± 0.71
5,FYRCRRSRNGGISDVFRIIP,0.242 ± 0.3
6,YFSDKVSSAFT,0.318 ± 0.37
7,SGNCQSRFVVNGNHKC,0.371 ± 0.5
8,VSYYITCRGKVETIALADRM,0.088 ± 0.93
9,VNTVMGTMQLKLCHKLRIVG,0.19 ± 0.71
10,LFVMSWYNYAVKFVAINTIT,-0.031 ± 0.24
11,NQTSLAILSRSSQGHGTKVY,0.623 ± 0.95
12,KNYLLSLGVCNFQSYPHKCW,4.22 ± 0.16
13,PVFGGNGWLGYGWNWRSHLG,0.383 ± 0.49
14,ANSVQG,0.9 ± 0.73
15,VRHGRSYSFLRQGDFMWCGS,-0.306 ± 0.57
16,SFVVGNGYMVGWWFITAHVA,0.499 ± 0.41
17,GACLWGT,0.338 ± 0.29
18,GRNWLVGCVAQWHWSSLSWS,-1.11 ± 2.7
19,ILIFVNSVYRNVSSR,5.27 ± 0.056
20,RLVSFKCFCFLFLIDFMQGV,0.495 ± 0.45
21,FCNVQIFFAVITHPFYSTLL,1.48 ± 0.24
22,FTALPSTVVIVQHTLHLDSF,6.48 ± 0.066
